This note sets out measurements from the supplement of paper PMC10567573.

To fix the notation:
B1: SOAT1 (parent)
chain: GVLILFLTFFAFLHCWLNAFAEML
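Note: lentivirally expressed fusions sorted by FACS into six bins by GFP to DsRed ratio, PSI derived from sequencing read proportions per bin multiplied by bin number.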

Variants of B1 are the subject of the data set. Briefly: protein stability index of a GFP-peptide fusion (GPS, HEK-293T) (PSI 1-6); higher = more stable. The settings on record: c terminus: a fixed tail appended.
With GVLILYLTFFAFLHCWLNAFAEML [F6Y], the protein stability index came out at 3.06.
As to GVLILQLTFFAFLHCWLNAFAEML [F6Q], the protein stability index amounted to 3.85.
For the variant GVLILMLTFFAFLHCWLNAFAEML [F6M], the protein stability index is 1.35.
For the variant GVLILALTFFAFLHCWLNAFAEML [F6A], the protein stability index was determined as 3.95.
Consider GVLILGLTFFAFLHCWLNAFAEML [F6G], for which the protein stability index is 1.72.
On to GVLILDLTFFAFLHCWLNAFAEML [F6D], for which the protein stability index came out at 1.78.
Under GVLILILTFFAFLHCWLNAFAEML [F6I] stands 2.63.
For GVLILHLTFFAFLHCWLNAFAEML [F6H] the value was 2.63.
For the variant GVLILTLTFFAFLHCWLNAFAEML [F6T], the protein stability index stood at 2.02.
Take GVLILPLTFFAFLHCWLNAFAEML [F6P]: the protein stability index amounted to 2.63.
Under GVLILRLTFFAFLHCWLNAFAEML [F6R] stands 3.83.
For GVLILVLTFFAFLHCWLNAFAEML [F6V] the value was 3.25.
As to GVLILSLTFFAFLHCWLNAFAEML [F6S], the protein stability index was 2.73.
In the case of GVLILFQTFFAFLHCWLNAFAEML [L7Q], the protein stability index stood at 2.92.
Regarding GVLILFGTFFAFLHCWLNAFAEML [L7G], the protein stability index amounted to 2.95.
GVLILFMTFFAFLHCWLNAFAEML [L7M]: the protein stability index came out at 2.38.
For GVLILFRTFFAFLHCWLNAFAEML [L7R], the protein stability index was 3.36.
For GVLILFFTFFAFLHCWLNAFAEML [L7F] the value was 1.85; for GVLILFWTFFAFLHCWLNAFAEML [L7W], 4.58.
On to GVLILFNTFFAFLHCWLNAFAEML [L7N], for which the protein stability index worked out at 3.81.
For GVLILFPTFFAFLHCWLNAFAEML [L7P] the value was 2.68; for GVLILFETFFAFLHCWLNAFAEML [L7E], 3.09.
Turning to GVLILFATFFAFLHCWLNAFAEML [L7A], the protein stability index came out at 3.84.
Under GVLILFDTFFAFLHCWLNAFAEML [L7D] stands 2.11; under GVLILFITFFAFLHCWLNAFAEML [L7I], 2.4.
GVLILFVTFFAFLHCWLNAFAEML [L7V]: the protein stability index came to 2.56.
With GVLILFCTFFAFLHCWLNAFAEML [L7C], the protein stability index worked out at 1.91.
As to GVLILFKTFFAFLHCWLNAFAEML [L7K], the protein stability index is 3.37.
On to GVLILFLTGFAFLHCWLNAFAEML [F9G], for which the protein stability index was found to be 4.01.
For GVLILFLTIFAFLHCWLNAFAEML [F9I] the value was 1.34.
GVLILFLTMFAFLHCWLNAFAEML [F9M]: the protein stability index turned out to be 3.56.
For GVLILFLTCFAFLHCWLNAFAEML [F9C] the value was 3.31.
Regarding GVLILFLTWFAFLHCWLNAFAEML [F9W], the protein stability index came to 3.04.
For GVLILFLTDFAFLHCWLNAFAEML [F9D], the protein stability index is 3.34.
Take GVLILFLTSFAFLHCWLNAFAEML [F9S]: the protein stability index is 1.94.
In the case of GVLILFLTNFAFLHCWLNAFAEML [F9N], the protein stability index was 2.46.
With GVLILFLTKFAFLHCWLNAFAEML [F9K], the protein stability index came out at 3.13.
For GVLILFLTAFAFLHCWLNAFAEML [F9A] the value was 1.36; for GVLILFLTEFAFLHCWLNAFAEML [F9E], 3.8; for GVLILFLTQFAFLHCWLNAFAEML [F9Q], 2.33.
For GVLILFLTPFAFLHCWLNAFAEML [F9P] the value was 3.94; for GVLILFLTHFAFLHCWLNAFAEML [F9H], 4.54; for GVLILFLTVFAFLHCWLNAFAEML [F9V], 3.43.
On to GVLILFLTYFAFLHCWLNAFAEML [F9Y], for which the protein stability index came out at 2.83.
For GVLILFLTTFAFLHCWLNAFAEML [F9T], the protein stability index came to 2.68.
Consider GVLILFLTFFAFLHDWLNAFAEML [C15D], for which the protein stability index amounted to 1.44.
Take GVLILFLTFFAFLHEWLNAFAEML [C15E]: the protein stability index came to 2.28.
Consider GVLILFLTFFAFLHAWLNAFAEML [C15A], for which the protein stability index was found to be 2.75.
As for GVLILFLTFFAFLTCWLNAFAEML [H14T], the protein stability index was 2.06.
Regarding GVLILFLTFFAFLICWLNAFAEML [H14I], the protein stability index came out at 1.95.
As to GVLILFLTFFAFLWCWLNAFAEML [H14W], the protein stability index worked out at 2.17.
Consider GVLILFLTFFAFLECWLNAFAEML [H14E], for which the protein stability index amounted to 2.94.
Under GVLILFLTFFAFLVCWLNAFAEML [H14V] stands 1.48; under GVLILFLTFFAFLDCWLNAFAEML [H14D], 3.15.
GVLILFLTFFAFLCCWLNAFAEML [H14C]: the protein stability index was 2.17.
Regarding GVLILFLTFFAFLMCWLNAFAEML [H14M], the protein stability index was 2.07.
Under GVLILFLTFFAFLGCWLNAFAEML [H14G] stands 2.45; under GVLILFLTFFAFLACWLNAFAEML [H14A], 2.22.
Under GVLILFLTFFAFLRCWLNAFAEML [H14R] stands 2.68.
Regarding GVLILFLTFFAFLSCWLNAFAEML [H14S], the protein stability index stood at 2.02.
Under GVLILFLTFFAFLLCWLNAFAEML [H14L] stands 1.87; under GVLILFLTFFAFLKCWLNAFAEML [H14K], 2.17; under GVLILFLTFFAFLPCWLNAFAEML [H14P], 2.06.
In the case of GVLILFLTFFAFLQCWLNAFAEML [H14Q], the protein stability index amounted to 2.47.
In the case of GVLILFLTFFAFLFCWLNAFAEML [H14F], the protein stability index amounted to 1.52.
Turning to GVLILFLTFFAFLYCWLNAFAEML [H14Y], the protein stability index stood at 2.09.
GVLILFLTFFANLHCWLNAFAEML [F12N]: the protein stability index is 3.
Consider GVLILFLTFFASLHCWLNAFAEML [F12S], for which the protein stability index is 3.35.
On to GVLILFLTFFAALHCWLNAFAEML [F12A], for which the protein stability index came to 2.65.
GVLILFLTFFAGLHCWLNAFAEML [F12G]: the protein stability index amounted to 2.81.
On to GVLILFLTFFAILHCWLNAFAEML [F12I], for which the protein stability index amounted to 2.6.
Regarding GVLILFLTFFATLHCWLNAFAEML [F12T], the protein stability index turned out to be 2.42.
As to GVLILFLTFFAHLHCWLNAFAEML [F12H], the protein stability index came out at 2.43.
On to GVLILFLTFFAMLHCWLNAFAEML [F12M], for which the protein stability index amounted to 2.87.
Under GVLILFLTFFAKLHCWLNAFAEML [F12K] stands 3.54.
Consider GVLILFLTFFADLHCWLNAFAEML [F12D], for which the protein stability index came to 2.27.
For the variant GVLILFLTFFAYLHCWLNAFAEML [F12Y], the protein stability index amounted to 2.75.
Consider GVLILFLTFFAQLHCWLNAFAEML [F12Q], for which the protein stability index worked out at 2.71.
For GVLILFLTFFARLHCWLNAFAEML [F12R], the protein stability index was 2.64.
Take GVLILFLTFFAELHCWLNAFAEML [F12E]: the protein stability index was determined as 3.48.
On to GVLILFLTFFAWLHCWLNAFAEML [F12W], for which the protein stability index stood at 2.92.
Turning to GVLILFLTFFAVLHCWLNAFAEML [F12V], the protein stability index is 1.84.
For GVLILFLTFFACLHCWLNAFAEML [F12C] the value was 3.26.
With GVLILFLTFFALLHCWLNAFAEML [F12L], the protein stability index amounted to 2.09.
As for GVLVLFLTFFAFLHCWLNAFAEML [I4V], the protein stability index is 2.92.
Take GVLSLFLTFFAFLHCWLNAFAEML [I4S]: the protein stability index is 2.66.
Under GVLQLFLTFFAFLHCWLNAFAEML [I4Q] stands 4.98; under GVLMLFLTFFAFLHCWLNAFAEML [I4M], 3.03.
Under GVLKLFLTFFAFLHCWLNAFAEML [I4K] stands 1.43; under GVLCLFLTFFAFLHCWLNAFAEML [I4C], 2.42; under GVLGLFLTFFAFLHCWLNAFAEML [I4G], 4.32.
Under GVLPLFLTFFAFLHCWLNAFAEML [I4P] stands 2.26; under GVLNLFLTFFAFLHCWLNAFAEML [I4N], 3.78; under GVLTLFLTFFAFLHCWLNAFAEML [I4T], 3.27.
